Results as given in patent publication US12723105 (BEIJING STARMAB BIOMED TECHNOLOGY, dated 2026).
Residue numbers refer to the chain shown, from its start.

B1: 33-14 (VHH)
VHH: QVQLVESGGGLVQAGDSLKLSCAASGRTSLILAMAWWRQAPGKEREFAGRIWWNNDMTRYSDSVKGRFTISKDNTKNMVYLRMDNLGPEDTAVYYCEADLIGGSRGWGQGTQVTVSS
notes: not shown: C-terminal His-tag
B2: 33-1 (VHH)
VHH: QVQLVESGGGLVQTGGSLRLSCAASGGTFTNYAMGWFREAPGKEREFVAGINNNGDTLYNTNSVKGRFTISRDNAKNTVYLHMNSLKLEDTAVYYCAANLKGASWYSANYDYWGQGTQVTVSS
notes: not shown: C-terminal His-tag
B3: 33-4 (VHH)
VHH: QVQLVESGGGSVQPGGSLRLSCEASGSIFSIAHMGWYRQAPGKQRELVAVISSGGRTNYVDSVKGRFTISRDNAKNTVYLQMNSLKAEDTAVYFCNVAVVGGPRFDYWGQGTQVTVSS
notes: not shown: C-terminal His-tag
B4: 33-8 (VHH)
VHH: EVQLMESGGGLVQAGGSLRLSCAASGRTVSTYVMGWFRQAPGKEREFVAEINRIGDTLYNRTSVKGRFTISRDNAKNTVYLQMNSLEPEDTAVYSCAARVIGTSTYNYWGQGTQVTVSS
notes: not shown: C-terminal His-tag
B5: 33-13 (VHH)
VHH: QVQLVESGGGLVQAGGSLRLSCAASGSISSINSMNWYRQAPGKQREKVAGINSSGDTNYVDSVKGRFTISRDNAERTTYLQMNNLKPEDTGLYYCNADPRPWPNDVAFGSWGQGTRVTVSS
notes: not shown: C-terminal His-tag
B6: 33-2 (VHH)
VHH: QVQLVESGGGLVQAGGSLRLSCTASANILRTAPMAWYRQAPGKQREFVALITADGTTDYQESVKGRFTTSRDNAKNTVYLQMNSLQSEDTARYFCKVYSYWGQGTQVTVSS
notes: not shown: C-terminal His-tag
B7: PL18 (VHH)
VHH: EVQLVESGGGLVQAGGSLRLSCAASGRTFNIYSMAWFRQAPGKEREFVVRINWNRGTTYYADSVKGRFTISRDNAKNTVYLQMSNLKPEDTAVYYCAARGSPSTIGAFTSASHYDYWGQGTQVTVSS
notes: not shown: C-terminal His-tag
B8: PL16 (VHH)
VHH: QVQLVESGGGLVQAGGSLRLSCAFSGGTFLTYSLGWFRQGPGKEREFVASINWSGYMTSYVDSVKGRFTISRDNAKNTVYLQMNSLKPEDTALYYCAAARTAIAAKRSSEFDYWGQGAQVTVSS
notes: not shown: C-terminal His-tag
B9: PL11 (VHH)
VHH: QVQLVESGGGLVQAGGSLRLSCAASGRTFNTYDMGWFRRAPGKEREFVAGIDWYTTNTYYADSVKGRFTISRDNAKNTVYLQMRSLKPEDTAVYYCAAGIRSTATITGQADYWGQGAQVTVSS
notes: not shown: C-terminal His-tag
B10: PL17 (VHH)
VHH: B9 VHH with A40T, I51M, Y54N, T56I, T105I, A117T
notes: not shown: C-terminal His-tag
B11: PL2 (VHH)
VHH: QVQLVESGGGLVQAGGSLRLSCAVSGLTLSRYTMAWFRQAPGKEREFVAAIIRNSVSTFHEESVKGRFTISRDNVKNMMYLQMNTLKPEDTAVYYCATNVGPTGGFSLQSVQRYDAWGQGTQVTVSS
notes: not shown: C-terminal His-tag
B12: PL14 (VHH)
VHH: EVQLVESGGGLVQAGGSLRLSCAASGSTSGIYDMGWYRQAPGKLREVVGIITSGGTTNYADFAKGRFTISRDNAKNMMYLQMNSLKPEDTAVYYCNIRTRLIIWGQGTQVTVSS
notes: not shown: C-terminal His-tag
B13: A09-08 (VHH)
VHH: QVQLVESGGGLVQAGGSLRLSCAASGYGVNSYALGWFRQAPGKEREFVAAISRSGGNINYADSAKGRFTISRDNFKNTTYLQMSSLKPEDTAVYYCAAHYLLLPSYISTSTNMYNYWGQGTQVTVSS
notes: not shown: C-terminal His-tag
B14: A09-006 (VHH)
VHH: B13 VHH with Y27I, G28R, V29F, N30F, S31G, Y32S
notes: also called A09-06; not shown: C-terminal His-tag
B15: A09-31 (VHH)
VHH: B13 VHH with S108A, S110A, T111I, N112K
notes: not shown: C-terminal His-tag
B16: A09-61 (VHH)
VHH: B13 VHH with T109F, S110A, T111S, N112K
notes: not shown: C-terminal His-tag
B17: A09-10 (VHH)
VHH: QVQLVESGGGLVQAGGSLRLSCAASGGGRTFSNYALGWFRQAPGKEREFVAAISRSGGNINYADSAKGRFTISRDNFKNTTYLQMSSLKPEDTAVYYCAAHYLLLPSYISTSTNMYNYWGQGTQVTVSS
notes: not shown: C-terminal His-tag
B18: hA09-10 (VHH)
VHH: B17 VHH with Q1E, A14P, A66V, F77A, T81V, K89R, P90A
notes: also called humanized A09-10; not shown: C-terminal His-tag
B19: HS5 (VHH)
VHH: EVQLVESGGGLVQAGGSLRLSCAASGRTFTTHAMGWFRQAPGKEREFVATINWGGRTTYYADSVKGRFIISRDTGANTVYLQMNSLKPEDTAVYYCASNLDTYNVRAGTTNSWGQGTQVTVSS
notes: not shown: C-terminal His-tag
B20: LG19 (VHH)
VHH: QVQLVESGGGLVQPGGSLRLSCAASGFTLDYYAIGWFRQAPGKEREGVSCISSSDGSTYYADSVKGRFTISRDNAKNTVYLQMNSLKPEDTAVYYCAADRRGSCRQYDYWGQGTQVTVSS
notes: not shown: C-terminal His-tag
B21: LG22 (VHH)
VHH: EVQLVESGGGLVQPGGSLRLSCAASGFTLDYYAIGWFRQAPGKEREGVSCIINSDGSTYYADSVKGRFTISRDNAKNTVYLQMNSLKPEDTAVYYCATDRYSDCRGPYDYWGQGTQVTVSS
notes: not shown: C-terminal His-tag
B22: LG6 (VHH)
VHH: EVQLVESGGGLVQAGGSLRLSCAVSGSIFSISTMGWYRQAPGKQRELVASITARGSADYADSVKGRFTISRDNAKNTVYLQMSSLKPEDTAVYYCNTDTRSTLYHYSWGQGTQVTVSS
notes: not shown: C-terminal His-tag
B23: LG-D8 (VHH)
VHH: QVQLVESGGGLVQPGGSLRLSCAASGFTFGKYAMSWVRQVPDKGLEWVSSISSSGRDTSYADSAKGRFTIFRNNAANTVYLQMDNLKLEDTGVYYCVKCLEVWATREYDGWGQGTQVTVSS
notes: not shown: C-terminal His-tag
B24: hLG9 (VHH)
VHH: EVQLLESGGGLVQPGGSLRLSCAASGSTIDDYPMSWFRQAPGKGREGVAAIDDSDESTYYADSVKGRFTISRDNSKNTLYLQMNSLRAEDTAVYYCARGAIFMIDGVDVFLTYYYDSWGQGTLVTVSS
notes: also called LG9H; not shown: C-terminal His-tag
B25: LG99 (VHH)
VHH: B24 VHH with I101L, Y115F, D116E, S117F
notes: not shown: C-terminal His-tag
B26: LG9 (VHH)
VHH: EVQLVESGGGLVQPGGSLRLSCAASGSTIDDYPIGWFRQAPGKEREGVSCIDDSDESTYYADSVKGRFTISRDNAKNTVYLQMNSLKPEDTAVYYCARGAIFMIDGVDVFLTYYYDSWGQGTQVTVSS
notes: not shown: C-terminal His-tag
B27: LG2 (VHH)
VHH: QVQLVESGGGLVQPGGSLRLSCAASGTIFSINAMGWYRQAPGKQRELVAIVTFGGSTNYADSVKGRFTISRDNAKNTVYLQMNSLKPEDTAVYYCSARNVQSPVQYHLAVWGQGTLVTVSS
notes: not shown: C-terminal His-tag

Biological target: Human CD33 (human, UniProt P20138 18-259)
Sequence (P20138 18-259 limits assumed): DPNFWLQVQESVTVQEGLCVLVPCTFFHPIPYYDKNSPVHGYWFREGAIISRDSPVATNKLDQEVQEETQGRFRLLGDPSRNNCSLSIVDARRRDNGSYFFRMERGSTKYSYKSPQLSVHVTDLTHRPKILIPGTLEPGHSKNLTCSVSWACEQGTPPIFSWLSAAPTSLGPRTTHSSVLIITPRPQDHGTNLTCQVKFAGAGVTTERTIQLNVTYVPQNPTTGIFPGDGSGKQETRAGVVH
Experiment: BLI (Octet) as in Example 1, His-tagged VHH, human CD33

Kd [nM]	koff [s⁻¹]	kon [M⁻¹ s⁻¹]	Binder
0.136	0.000109	800000	B1
1.01	0.00081	800000	B2
0.995	0.0009	900000	B3
0.511	0.0007	1.1e+06	B4
0.409	0.0005	1e+06	B5
0.753	0.0006	800000	B6

Biological target: T1, Human PD-L1 antigen (human, UniProt Q9NZQ7 19-238)
T1 construct: also called PD-L1 protein
T1 sequence (Q9NZQ7 19-238 limits assumed): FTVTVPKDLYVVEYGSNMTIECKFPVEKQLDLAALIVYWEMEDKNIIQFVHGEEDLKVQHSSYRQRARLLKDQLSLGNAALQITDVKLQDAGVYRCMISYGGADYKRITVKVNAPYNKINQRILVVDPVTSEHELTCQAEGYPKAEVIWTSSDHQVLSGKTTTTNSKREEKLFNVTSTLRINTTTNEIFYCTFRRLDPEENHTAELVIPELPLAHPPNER
Experiment: BLI (Octet), His-tagged VHH on anti-penta-His tips, soluble human PD-L1

Kd [nM]	koff [s⁻¹]	kon [M⁻¹ s⁻¹]	Binder
2.67	0.000114	42700	B7
0.0271	2.98e-06	110000	B8
19	0.000522	27500	B9
0.0114	1.09e-06	87000	B10
630	0.021	33300	B11
0.0177	1.1e-06	62100	B12

Biological target: T2, human CD47 (R & D systems) (human, UniProt Q08722 19-139)
T2 construct: The Octet analyte was bought (R&D Systems); also called Human CD47 antigen; hCD47
Experiment: BLI (Octet), His-tagged VHH on anti-penta-His tips, soluble human CD47

Kd [nM]	koff [s⁻¹]	kon [M⁻¹ s⁻¹]	Binder
0.063	2.1e-06	33300	B13
0.0114	1.09e-06	87000	B14
19	0.000522	27500	B15
1.77	0.00011	62100	B16
0.0267	1.14e-06	42700	B17
0.0276	1.1e-06	39800	B18

Biological target: T3, Human serum albumin (human, UniProt P02768 25-609)
T3 construct: also called HSA
Experiment: BLI (Octet) as in Example 1, His-tagged VHH, HSA

Kd [nM]	koff [s⁻¹]	kon [M⁻¹ s⁻¹]	Binder
0.946	0.000765	809000	B19

Biological target: T4, human LAG3 (human, UniProt P18627 29-450, limits assumed)
T4 construct: also called hLAG3
T4 sequence: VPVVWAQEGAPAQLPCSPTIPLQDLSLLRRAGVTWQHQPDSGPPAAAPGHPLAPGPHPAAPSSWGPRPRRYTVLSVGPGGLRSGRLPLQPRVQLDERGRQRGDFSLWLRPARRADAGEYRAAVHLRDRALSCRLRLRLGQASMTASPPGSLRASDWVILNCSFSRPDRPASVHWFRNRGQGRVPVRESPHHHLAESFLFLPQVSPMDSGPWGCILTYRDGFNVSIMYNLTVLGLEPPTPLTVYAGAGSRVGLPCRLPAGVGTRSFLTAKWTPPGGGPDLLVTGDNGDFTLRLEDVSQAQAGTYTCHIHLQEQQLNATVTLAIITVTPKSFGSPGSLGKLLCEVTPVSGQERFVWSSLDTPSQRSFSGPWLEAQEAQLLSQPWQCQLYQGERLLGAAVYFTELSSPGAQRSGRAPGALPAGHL
Experiment: BLI (Octet) as in Examples 1-4, His-tagged VHH, human LAG3

Kd [nM]	koff [s⁻¹]	kon [M⁻¹ s⁻¹]	Binder
0.114	1.09e-05	87000	B20
0.267	1.14e-05	42700	B21
19	0.000522	27500	B22
2.98	9.82e-05	33000	B23
2.71	0.000298	110000	B24
0.0792	2.91e-05	367000	B25
1.77	0.00011	62100	B26
630	0.021	33300	B27
